Assay [1] addresses E-selectin:IgG chimera (UniProt P16581). As to the kind of experiment: competition ELISA: inhibition of sLe^x-PAA-biotin binding to coated E-selectin:IgG. For orientation: In an ELISA, binding on a coated surface is turned into a signal by an enzyme label.
Assay [2] concerns the target E-selectin:IgG chimera (UniProt P16581 22-301). The assay is described as above.

Positions of bridges follow the written chain, without caps; N, C: chain ends. No end group written: not given here.

Sequence of E-selectin:IgG chimera (UniProt P16581) (P16581 22-301, change not shown): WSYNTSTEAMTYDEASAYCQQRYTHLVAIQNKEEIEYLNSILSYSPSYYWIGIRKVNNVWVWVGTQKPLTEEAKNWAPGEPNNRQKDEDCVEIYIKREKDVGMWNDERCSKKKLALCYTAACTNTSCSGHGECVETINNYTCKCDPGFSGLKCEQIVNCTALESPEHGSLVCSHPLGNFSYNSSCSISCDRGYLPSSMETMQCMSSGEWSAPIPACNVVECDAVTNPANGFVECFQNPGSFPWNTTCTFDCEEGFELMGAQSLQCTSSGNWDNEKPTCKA
Sequence of E-selectin:IgG chimera (UniProt P16581 22-301) (P16581 22-301, change not shown): as above

The term IC50 denotes the concentration that inhibits the measured activity by half. A low value points to greater potency in that assay. Molecule IELLQAR (also: eight copies on branched MAPS core) [IELLQAR (SEQ ID NO:7) multivalent (Fmoc eight branch) peptide] displayed an IC50 in assay [1] of 10 µM. IELLQAR [synthetic linear IELLQAR (SEQ ID NO:7) peptide]: the IC50 in assay [1] stood at 200 µM.

B1: synthetic cyclic CIELLQARC (SEQ ID NO:13) peptide (peptide)
peptide: CIELLQARC
modifications: disulfide 1-9 (inferred)
notes: Synthetic peptide cyclised by a disulfide bond; also called cyclic heptapeptide
In assay [2], B1 returned an IC50 of 100 µM.

(Values after US20030017170A1 (BURNHAM INSTITUTE, published 2003).)
